Reference: US20210128683A1 (RISE BIOPHARMACEUTICALS, published 2021)

How the values were obtained:
CXCR1 = target: T1, CXCR1 (UniProt P25024 1-350, limits assumed); test: indirect ELISA, ONCO P8-CXCR1 complex formation
T1 construct: also called IL-8R
T1 sequence (looked up): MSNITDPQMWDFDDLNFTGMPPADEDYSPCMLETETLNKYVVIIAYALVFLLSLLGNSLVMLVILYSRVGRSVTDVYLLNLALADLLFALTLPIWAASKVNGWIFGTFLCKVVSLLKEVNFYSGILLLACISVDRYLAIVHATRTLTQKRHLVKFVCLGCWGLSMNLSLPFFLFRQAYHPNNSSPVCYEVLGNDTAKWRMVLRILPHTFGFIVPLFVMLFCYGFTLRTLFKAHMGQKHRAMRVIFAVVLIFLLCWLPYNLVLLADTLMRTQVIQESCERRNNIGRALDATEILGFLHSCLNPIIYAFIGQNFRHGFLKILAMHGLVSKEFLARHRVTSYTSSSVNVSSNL
Text: The Kd Equation include: (1) i=A_{450 nm}/A^max_{450 nm}, then i=Ligand/Ligand^max; (2) 1/(1−i)=(Ligₜₒₜ/i)/Kd−b, b=fqSrec/Kd.

CXCR2 = target: T2, CXCR2 (UniProt P25025 1-360, limits assumed); test: indirect ELISA, ONCO P8-CXCR2 complex formation
T2 construct: also called IL-8R
T2 sequence (looked up): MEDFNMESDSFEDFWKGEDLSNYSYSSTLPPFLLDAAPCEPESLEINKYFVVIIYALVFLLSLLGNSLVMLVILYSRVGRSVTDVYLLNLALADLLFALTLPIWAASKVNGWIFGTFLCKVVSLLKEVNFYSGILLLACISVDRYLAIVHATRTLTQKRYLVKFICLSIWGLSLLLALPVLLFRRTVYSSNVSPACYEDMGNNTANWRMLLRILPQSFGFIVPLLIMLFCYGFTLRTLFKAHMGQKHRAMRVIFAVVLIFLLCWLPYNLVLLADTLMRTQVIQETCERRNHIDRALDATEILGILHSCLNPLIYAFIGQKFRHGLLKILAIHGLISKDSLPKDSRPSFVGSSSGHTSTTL

Kd (CXCR1): 286 nM | Kd (CXCR2): 139 nM
B1: ONCO P-8 (peptide)
chain: GSKELRCQCIRSYSKPFHPKFIKELRVIPASQFCANTEIIVKLSDGRELCLDPKENWVQRVVEKFLKRAENS
notes: Designed analogue of CXCL8 (IL-8), described as an antagonist of CXCR1 and CXCR2; also called chemokine receptor antagonistic modified peptide
